Reference: IntAct's records for PubMed 29892012

B1: Ribosome assembly protein METTL17, mitochondrial (Homo sapiens), Q9H7H0 (parent)
chain: MAAALKCLLTLGRWCPGLGVAPQARALAALVPGVTQVDNKSGFLQKRPHRQHPGILKLPHVRLPQALANGAQLLLLGSAGPTMENQVQTLTSYLWSRHLPVEPEELQRRARHLEKKFLENPDLSQTEEKLRGAVLHALRKTTYHWQELSYTEGLSLVYMAARLDGGFAAVSRAFHEIRARNPAFQPQTLMDFGSGTGSVTWAAHSIWGQSLREYMCVDRSAAMLVLAEKLLKGGSESGEPYIPGVFFRQFLPVSPKVQFDVVVSAFSLSELPSKADRTEVVQTLWRKTGHFLVLVENGTKAGHSLLMDARDLVLKGKEKSPLDPRPGFVFAPCPHELPCPQLTNLACSFSQAYHPIPFSWNKKPKEEKFSMVILARGSPEEAHRWPRITQPVLKRPRHVHCHLCCPDGHMQHAVLTARRHGRDLYRCARVSSWGDLLPVLTPSAFPPSTAQDPSES
B2: Enhancer of mRNA-decapping protein 3 (Homo sapiens), Q96F86 (parent)
chain: MATDWLGSIVSINCGDSLGVYQGRVSAVDQVSQTISLTRPFHNGVKCLVPEVTFRAGDITELKILEIPGPGDNQHFGDLHQTELGPSGAGCQVGINQNGTGKFVKKPASSSSAPQNIPKRTDVKSQDVAVSPQQQQCSKSYVDRHMESLSQSKSFRRRHNSWSSSSRHPNQATPKKSGLKNGQMKNKDDECFGDDIEEIPDTDFDFEGNLALFDKAAVFEEIDTYERRSGTRSRGIPNERPTRYRHDENILESEPIVYRRIIVPHNVSKEFCTDSGLVVPSISYELHKKLLSVAEKHGLTLERRLEMTGVCASQMALTLLGGPNRLNPKNVHQRPTVALLCGPHVKGAQGISCGRHLANHDVQVILFLPNFVKMLESITNELSLFSKTQGQQVSSLKDLPTSPVDLVINCLDCPENVFLRDQPWYKAAVAWANQNRAPVLSIDPPVHEVEQGIDAKWSLALGLPLPLGEHAGRIYLCDIGIPQQVFQEVGINYHSPFGCKFVIPLHSA
partner: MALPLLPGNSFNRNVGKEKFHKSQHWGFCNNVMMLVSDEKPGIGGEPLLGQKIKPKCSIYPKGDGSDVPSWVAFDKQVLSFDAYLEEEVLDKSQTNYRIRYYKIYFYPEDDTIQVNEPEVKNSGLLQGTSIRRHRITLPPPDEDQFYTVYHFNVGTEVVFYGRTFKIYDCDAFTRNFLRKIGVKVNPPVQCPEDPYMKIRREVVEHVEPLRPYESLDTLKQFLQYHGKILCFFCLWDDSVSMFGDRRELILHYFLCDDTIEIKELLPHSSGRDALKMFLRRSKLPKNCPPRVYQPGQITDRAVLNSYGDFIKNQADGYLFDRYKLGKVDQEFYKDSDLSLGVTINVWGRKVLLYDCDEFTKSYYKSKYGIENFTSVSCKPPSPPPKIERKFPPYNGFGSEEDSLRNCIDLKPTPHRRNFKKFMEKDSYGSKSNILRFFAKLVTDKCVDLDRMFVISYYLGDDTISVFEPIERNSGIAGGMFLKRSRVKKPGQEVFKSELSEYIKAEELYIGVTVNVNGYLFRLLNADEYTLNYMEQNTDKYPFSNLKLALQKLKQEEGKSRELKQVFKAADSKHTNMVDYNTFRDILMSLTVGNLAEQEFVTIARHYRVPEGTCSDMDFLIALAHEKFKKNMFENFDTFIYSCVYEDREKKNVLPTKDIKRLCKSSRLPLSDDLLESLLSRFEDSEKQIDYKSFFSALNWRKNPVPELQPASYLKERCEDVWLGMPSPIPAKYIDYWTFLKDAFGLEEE
B3: Kinetochore protein NDC80 homolog (Homo sapiens), O14777 (parent)
chain: MKRSSVSSGGAGRLSMQELRSQDVNKQGLYTPQTKEKPTFGKLSINKPTSERKVSLFGKRTSGHGSRNSQLGIFSSSEKIKDPRPLNDKAFIQQCIRQLCEFLTENGYAHNVSMKSLQAPSVKDFLKIFTFLYGFLCPSYELPDTKFEEEVPRIFKDLGYPFALSKSSMYTVGAPHTWPHIVAALVWLIDCIKIHTAMKESSPLFDDGQPWGEETEDGIMHNKLFLDYTIKCYESFMSGADSFDEMNAELQSKLKDLFNVDAFKLESLEAKNRALNEQIARLEQEREKEPNRLESLRKLKASLQGDVQKYQAYMSNLESHSAILDQKLNGLNEEIARVELECETIKQENTRLQNIIDNQKYSVADIERINHERNELQQTINKLTKDLEAEQQKLWNEELKYARGKEAIETQLAEYHKLARKLKLIPKGAENSKGYDFEIKFNPEAGANCLVKYRAQVYVPLKELLNETEEEINKALNKKMGLEDTLEQLNAMITESKRSVRTLKEEVQKLDDLYQQKIKEAEEEDEKCASELESLEKHKHLLESTVNQGLSEAMNELDAVQREYQLVVQTTTEERRKVGNNLQRLLEMVATHVGSVEKHLEEQIAKVDREYEECMSEDLSENIKEIRDKYEKKATLIKSSEE

Variants of: B1
Conditions: with sf3b4_human SF3B4, Q15427
sf3b4_human SF3B4, Q15427, sequence (Q15427 whole entry): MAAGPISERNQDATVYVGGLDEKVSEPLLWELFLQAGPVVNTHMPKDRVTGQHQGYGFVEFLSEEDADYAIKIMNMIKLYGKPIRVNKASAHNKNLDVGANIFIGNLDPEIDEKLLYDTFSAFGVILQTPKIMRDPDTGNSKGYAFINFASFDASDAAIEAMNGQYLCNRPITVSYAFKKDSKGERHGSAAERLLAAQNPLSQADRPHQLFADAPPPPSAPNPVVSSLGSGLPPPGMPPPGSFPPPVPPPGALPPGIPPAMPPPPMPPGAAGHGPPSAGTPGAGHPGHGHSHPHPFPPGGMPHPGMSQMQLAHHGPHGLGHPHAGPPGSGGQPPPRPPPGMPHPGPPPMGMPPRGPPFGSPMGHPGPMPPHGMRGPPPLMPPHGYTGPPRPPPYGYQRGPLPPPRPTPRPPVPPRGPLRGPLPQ

Variant	effect of a mutation on the interaction
R212H	with no effect

Variants of: B1
Conditions: with mdfi_human MDFI

Variant	effect of a mutation on the interaction
R212H	with no effect

Variants of: B2
Conditions: with efhc2_human EFHC2, Q5JST6

Variant	effect of a mutation on the interaction
F213L	with no effect

Variants of: B3
Conditions: with tnip1_human TNIP1, Q15025
tnip1_human TNIP1, Q15025, sequence (Q15025 whole entry): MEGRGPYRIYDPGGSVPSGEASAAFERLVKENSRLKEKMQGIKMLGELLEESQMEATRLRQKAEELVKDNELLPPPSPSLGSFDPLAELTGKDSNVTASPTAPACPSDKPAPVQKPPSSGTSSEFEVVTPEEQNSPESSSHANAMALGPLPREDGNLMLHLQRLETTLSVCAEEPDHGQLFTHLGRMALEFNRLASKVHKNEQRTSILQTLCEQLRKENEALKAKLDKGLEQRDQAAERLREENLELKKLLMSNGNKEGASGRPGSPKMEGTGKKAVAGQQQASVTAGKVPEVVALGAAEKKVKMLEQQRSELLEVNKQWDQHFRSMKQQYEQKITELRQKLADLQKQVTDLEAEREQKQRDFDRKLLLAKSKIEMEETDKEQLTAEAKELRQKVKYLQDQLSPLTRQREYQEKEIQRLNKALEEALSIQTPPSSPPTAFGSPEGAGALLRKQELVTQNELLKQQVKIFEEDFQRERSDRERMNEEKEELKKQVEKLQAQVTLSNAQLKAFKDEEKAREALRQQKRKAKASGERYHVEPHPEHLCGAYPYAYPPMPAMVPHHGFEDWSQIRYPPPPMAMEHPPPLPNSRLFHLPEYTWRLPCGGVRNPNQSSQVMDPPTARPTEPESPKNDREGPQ

Variant	effect of a mutation on the interaction
K288E	with no effect

Variants of: B3
Conditions: with amol2_human AMOTL2, Q9Y2J4
amol2_human AMOTL2, Q9Y2J4, sequence (Q9Y2J4 whole entry): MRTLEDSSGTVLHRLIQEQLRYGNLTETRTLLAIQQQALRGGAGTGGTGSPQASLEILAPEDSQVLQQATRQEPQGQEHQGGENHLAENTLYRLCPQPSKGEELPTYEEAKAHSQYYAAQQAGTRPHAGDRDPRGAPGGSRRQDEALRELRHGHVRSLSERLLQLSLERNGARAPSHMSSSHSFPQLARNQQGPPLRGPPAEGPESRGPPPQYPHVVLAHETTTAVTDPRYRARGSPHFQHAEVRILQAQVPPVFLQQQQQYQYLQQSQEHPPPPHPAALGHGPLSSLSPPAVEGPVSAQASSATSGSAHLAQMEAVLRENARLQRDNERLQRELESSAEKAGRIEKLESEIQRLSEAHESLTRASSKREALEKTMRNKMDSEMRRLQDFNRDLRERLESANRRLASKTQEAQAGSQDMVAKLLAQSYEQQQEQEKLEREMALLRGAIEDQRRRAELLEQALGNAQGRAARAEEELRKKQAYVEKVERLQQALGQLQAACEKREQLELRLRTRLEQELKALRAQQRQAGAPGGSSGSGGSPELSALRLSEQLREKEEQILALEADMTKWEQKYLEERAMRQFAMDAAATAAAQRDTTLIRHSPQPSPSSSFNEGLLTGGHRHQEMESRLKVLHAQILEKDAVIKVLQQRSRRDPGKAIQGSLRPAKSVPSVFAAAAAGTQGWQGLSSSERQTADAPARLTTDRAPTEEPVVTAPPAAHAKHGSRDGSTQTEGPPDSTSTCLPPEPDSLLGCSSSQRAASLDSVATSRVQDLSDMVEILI

Variant	effect of a mutation on the interaction
K288E	with no effect

Variants of: B3
Conditions: with atf4_human ATF4, P18848
atf4_human ATF4, P18848, sequence (P18848 whole entry): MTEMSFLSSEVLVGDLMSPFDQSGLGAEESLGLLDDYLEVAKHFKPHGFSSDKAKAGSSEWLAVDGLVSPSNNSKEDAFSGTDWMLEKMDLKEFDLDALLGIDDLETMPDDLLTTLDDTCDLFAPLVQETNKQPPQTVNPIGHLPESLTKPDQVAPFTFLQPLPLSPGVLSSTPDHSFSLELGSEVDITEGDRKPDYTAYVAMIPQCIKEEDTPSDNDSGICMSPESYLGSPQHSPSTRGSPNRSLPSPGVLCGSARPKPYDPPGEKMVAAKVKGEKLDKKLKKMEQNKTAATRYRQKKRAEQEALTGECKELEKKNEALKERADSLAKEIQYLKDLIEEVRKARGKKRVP

Variant	effect of a mutation on the interaction
K288E	with no effect

Variants of: B3
Conditions: with txlna_human TXLNA

Variant	effect of a mutation on the interaction
K288E	with no effect
